# Biological target: SARS-CoV-2 Omicron (B.1.1.529) Spike S1 (Sino Biological, 40591-V08H41) (SARS-CoV-2)
# Experiment: SPR
substance,measurement,value
"Human integrin αvβ3 (R&D Systems, 3817-AV-050) (from UniProt P06756 31-1048; P05106 27-718) (complex)",Kd,69.4 nM

# — paper PMC10362037
